Assay results: US9164103B2, “Monitoring and inhibiting human immunodeficiency virus infection by modulating HMGB1 dependent triggering of HIV-1 replication and persistence” (priority 2008, dated 2015)

Tests used:
iDCs [1] = assay: aNK-induced apoptosis of uninfected iDCs (7-AAD assay, NK:DC 5:1); type: cell-based, human; details: NK:DC ratio 5:1, 24 h
Experimental: FIGS. 9(a)-(g). aNK-dependent apoptosis of iDCs is TNF-related apoptosis-inducing ligand (TRAIL)-dependent and involves the DR4 receptor. (a) CD56^+ NK cells were purified from the blood of healthy donors. NK cells were maintained in culture with suboptimal concentrations of interleukin-2 (IL-2) (100 ng/ml) (rNK cells) or activated (aNK cells) by the addition PHA (10 μg/ml) and IL-2 (10 μg/ml) to cultures. The intensity of staining with anti-CD56 antibodies allows the distinction between two NK cell populations expressing CD56 highly (CD56^bright cells) and weakly (CD56^dim cells). Data represent the mean±sd of three independent experiments. (b) Membrane TRAIL (mTRAIL) expression by NK cells is determined by flow cytometry with anti-CD56 and -mTRAIL specific antibodies. Data represent one of three independent experiments. […] The proportions of mTRAIL-expressing aNK cells among CD56^bright and CD56^dim populations were determined. […] DR4 expression at the DCs surface is analyzed after 1, 2, 3.5, 6 and 24 h of NK-DC coculture. […] Cell death was then quantified with the 7-AAD assay. […] (f) 24 h cell-free culture supernatants of iDCs, rNK cells, aNK cells (10^6/ml), or cocultures of aNK cells and iDCs (ratio 5:1) were tested for soluble TRAIL (sTRAIL) content. sTRAIL was quantified by ELISA. […] The viability status of DCs was determined by flow cytometry with the 7-AAD assay. […]

iDC = assay: Direct phenotypic maturation of iDCs (flow cytometry of maturation markers); type: cell-based, human
Description: Co-staining with HLA-DR and CD86 specific antibodies allowed the identification of mature DCs (CD86^brightHLA-DR^bright). Data from a representative experiment out of three independent experiments are shown. […] The proportion of mDCs induced by LPS (DC0) (78.1% CD86^brightHLA-DR^bright) is shown as a positive control. […] These experiments have been performed on primary cells from a number of donors, and representative data from three of them are shown. When indicated, statistical analyses were made with the non parametric Mann-Whitney test. * p<0.05, ** p=0.02.
The maturation status of DCs was determined by flow cytometry with CD86 and HLA-DR—specific antibodies. […] (b) iDC (10^6 cells/ml) were cultured for 48 h with increasing concentrations (1-10 μg/ml) of rh-HMGB1. Cells were then stained with anti-CD86, -HLA-DR, -CD80, -CD83, DC-LAMP and -CD40 antibodies and analyzed by flow cytometry.

iDCs [2] = assay: Cytokine and chemokine production by DCs (MAP/Luminex); type: cell-based, human; details: iDCs 48 h, 1 or 10 μg/ml
Experimental: FIG. 3 (a)-(e). aNK-dependent maturation of HIV-1-infected iDCs is mediated by HMGB1 and involves RAGE. (a) Left panel: iDCs were cultured for 24 h either alone or with aNK cells, in the presence of blocking anti-HMGB1 antibodies (10 μg/ml) or glycyrrhizin (10 μg/ml). The maturation status of DCs was determined by flow cytometry with CD86 and HLA-DR—specific antibodies. Right panel: same experiment, but performed with HIV-1 infected iDCs. Data represent mean±sd of at least three independent experiments, and statistical comparisons were made with the non parametric Mann-Whitney test. * p<0.05. (b) iDC (10^6 cells/ml) were cultured for 48 h with increasing concentrations (1-10 μg/ml) of rh-HMGB1. Cells were then stained with anti-CD86, -HLA-DR, -CD80, -CD83, DC-LAMP and -CD40 antibodies and analyzed by flow cytometry. (c) Influence of rh-HMGB1 on cytokine and chemokine production (determined by MAP) by DCs. iDCs (10^6 cells/ml) were incubated for 48 h in medium or in presence of rh-HMGB1 (1 or 10 μg/ml). As a positive control, iDCs were stimulated with LPS (DC0). […] (e) iDC, DC0, uninfected or HIV-1-infected iDC cocultured for 24 h with aNK cells, were incubated with rh-HMGB1 (1 μg/ml) and subsequently stained with anti-RAGE antibodies and analyzed by flow cytometry. […]

RAGE = assay: Surface expression of RAGE on DCs (flow cytometry); type: cell-based, human; details: uninfected iDCs, 1 μg/ml
Experimental: (d) Flow cytometry detection of surface expression of RAGE by iDCs, DC0, or iDCs incubated with rh-HMGB1 (1 μg/ml). iDCs were either non infected or infected with HIV-1 (1 ng/ml p24 for 3 h). (e) iDC, DC0, uninfected or HIV-1-infected iDC cocultured for 24 h with aNK cells, were incubated with rh-HMGB1 (1 μg/ml) and subsequently stained with anti-RAGE antibodies and analyzed by flow cytometry. NK cells were excluded from the analysis through the co-staining with CD3- and CD56-specific antibodies (CD3^−CD56^+).
The possible involvement of RAGE during NK-DC cross-talk was evaluated with the same approach, comparing RAGE expression on DCs cocultured with aNK cells and DC cultured alone.
Phenotypic analysis of DCs and characterization of their maturation stage was performed by flow cytometry. DCs were stained for 20 min at 4° C. with antibodies specific for CD80, CD83, CD86, HLA-DR, CD40, DC-LAMP or DC-SIGN (all antibodies from BD Biosciences, San Jose, Calif.) diluted in 100 μl of PBS/10% FCS/0.1% NaN3. In some experiments, antibody specific for HMGB1-receptor, RAGE (Abcam), was used to stain DCs. After two washings, cells were fixed in 1% PFA, immediately acquired on a FACScalibur (Becton Dickinson) and analyzed with Flow Jo software.

R5-HIV-1Ba-L = assay: HIV-1 replication in infected iDCs (p24 ELISA in culture supernatant); type: cell-based; details: 3 days, 1 μg/ml
Experimental: FIGS. 6 (a), (b) and (c). Exogenous rh-HMGB1 triggers HIV-1 and HIV-2 replication in iDC. (a) HIV-1-infected iDC were cultured alone or in the presence of aNK cells for 3 days. Rh-HMGB1 (1 μg/ml) was added in some cultures. HIV replication was measured by p24 quantification in culture supernatant (b) HIV1-infected iDC were cultured alone or in the presence of aNK cells for 3 days. Blocking anti-HMGB1 antibodies (10 μg/ml) or glycyrrhizin (10 μg/ml) were added at culture initiation. HIV replication was measured by p24 quantification in culture supernatant. The mean±sd of three independent experiments is shown. Statistical comparisons were made with the non parametric Mann-Whitney test. * p<0.05; (c) HIV-2-infected iDC were cultured alone or in the presence of aNK cells for 3 days. Rh-HMGB1 (1 μg/ml) was added in some cultures. HIV replication was measured by p24 quantification in culture supernatant.
Exogenous HMGB1 was recently reported to increase HIV-1 replication in infected monocytic cell lines38, and to induce in vitro the reactivation of HIV-1 in PBMCs from HIV-1-infected patients under antiretroviral therapy39. Therefore, the question of the role of HMGB1 in the NK-dependent triggering of HIV replication in DCs was addressed. […] To investigate the influence of HMGB1 in the triggering of HIV-1 replication in infected-iDC-aNK cocultures, HMGB1-specific neutralizing antibodies or glycyrrhizin were added to these cocultures and p24 production was measured in the supernatant. […] They also indicate that aNK cell-dependent stimulation of HIV-1 replication in iDCs is mediated by HMGB1.
Virus stock preparation was prepared by amplification of R5-HIV-1Ba-L on MDM from healthy donors. Viral stock was then clarified by centrifugation prior to determination of HIV1 p24 concentration. iDCs were plated in 96-well culture plates at 200,000 cells/well and incubated for 3 hours at 37° C. in a 5% CO2 atmosphere with R5-HIV-1BAL at various concentrations (0.001 to 10 ng p24/ml). Cells were harvested, washed four times with media containing 10% FCS and, when indicated, rNK or aNK cells were added at a NK:DC ratio of 1:5, unless otherwise indicated. NK-DC cocultures lasted 24 h before analysis of the maturation stage of DCs and/or quantification of viral production. In some experiments (FIG. 6), HIV-1 infected iDCs were incubated alone or with aNK cells for 3 days, in the presence of rh-HMGB1 (1 μg/ml) (R&DSystems), and in some cultures in the presence of rabbit antiHMGB1 Abs (10 μg/ml) (Abcam, Cambridge, UK) or Glycyrrhizin (10 μg/ml).
The concentration of HIV-1 in the supernatant of infected cell cultures was determined by measuring the amount of p24 protein by ELISA (Ingen, Belgium). DNA from cells was extracted using the GIAamp DNA Blood Mini Kit (Qiagen, Basel, Switzerland) and quantified HIV-1 proviral load by RT-PCR as described previously54. The frequency of HIV-1-infected cells was determined by flow cytometry to detect intracellular p24 molecule. Cells were surface stained with antibodies specific for CD40 (BD Biosciences, San Jose, Calif.) to target DC and intracellular stained with p24-specific antibodies (Coulter). Stained cells were fixed in 1% PFA, immediately acquired on a FACScalibur (Becton Dickinson) and analyzed with FlowJo software. In some experiments infected DCs were imaged, after immunofluorescence, by laser scanning confocal microscopy.

HIV-2 = HIV-2 replication in infected iDCs (p24 ELISA in culture supernatant); type: cell-based; details: HIV-2-infected iDC, day 3
Experimental: FIGS. 6 (a), (b) and (c). Exogenous rh-HMGB1 triggers HIV-1 and HIV-2 replication in iDC. (a) HIV-1-infected iDC were cultured alone or in the presence of aNK cells for 3 days. Rh-HMGB1 (1 μg/ml) was added in some cultures. HIV replication was measured by p24 quantification in culture supernatant (b) HIV1-infected iDC were cultured alone or in the presence of aNK cells for 3 days. Blocking anti-HMGB1 antibodies (10 μg/ml) or glycyrrhizin (10 μg/ml) were added at culture initiation. HIV replication was measured by p24 quantification in culture supernatant. The mean±sd of three independent experiments is shown. Statistical comparisons were made with the non parametric Mann-Whitney test. * p<0.05; (c) HIV-2-infected iDC were cultured alone or in the presence of aNK cells for 3 days. Rh-HMGB1 (1 μg/ml) was added in some cultures. HIV replication was measured by p24 quantification in culture supernatant. […]
2—NK-DC cocultures: cells were harvested, washed three times with RPMI containing 10% FCS and, when indicated, aNK cells were added at a NK:DC ratio of 1:5. […] NK-DC cocultures lasted 3 to 7 days before quantification of viral production in culture supernatants.
3—Quantification of HIV-2 viral production: the concentration of HIV-2 particles in the supernatants was determined with the p24 ELISA kit (Ingen, Belgium).

Molecule | NK-dependent iDCs apoptosis (iDCs [1]) | percentage of CD86bright HLA-DRbright DCs (iDC; 10 μg/ml, 48 h of culture, medium alone 65%) | phenotypic maturation of iDC (iDC; 1 to 10 μg/ml, 24 h, similar at 48 h) | expression of CD80, CD83 and DC-lamp (iDC; rh-HMGB1-treated DCs compared with mDC (DC0)) | release of the chemokines MCP1, MIP-1α, MIP-1β and IL-8 (iDCs [2]) | RAGE expression on iDCs (RAGE) | p24 production (R5-HIV-1Ba-L; HIV-1-infected iDC cocultured with aNK cells) | production of p24 in culture supernatants (R5-HIV-1Ba-L; HIV-1-infected iDC cultured alone) | HIV-2 viral replication (p24) (HIV-2)
C/C=C/[C@H]1O[C@@](O)([C@@H](C)[C@H](O)[C@H](C)[C@H]2OC(=O)/C(OC)=C/C(C)=C/[C@@H](C)[C@@H](O)[C@@H](CC)[C@@H](O)[C@H](C)C/C(C)=C/C=C/[C@@H]2OC)C[C@@H](O[C@H]2C[C@@H](O)[C@H](OC(N)=O)[C@@H](C)O2)[C@@H]1C [Concanamycin A] | no effect | – | – | – | – | – | – | – | –
rh-HMGB1: recombinant human HMGB1 protein (R&D Systems), added exogenously (protein, UniProt P09429 1-215, looked up) High mobility group protein B1: MGKGDPKKPRGKMSSYAFFVQTCREEHKKKHPDASVNFSEFSKKCSERWKTMSAKEKGKFEDMAKADKARYEREMKTYIPPKGETKKKFKDPNAPKRPPSAFFLFCSEYRPKIKGEHPGLSIGDVAKKLGEMWNNTAADDKQPYEKKAAKLKEKYEKDIAAYRAKGKPDAAKKGVVKAEKSKKKKEEEEDEEDEEDEEEEEDEEDEDEEEDDDDE | – | 71% | did not induce phenotypic maturation of iDC | not fully mature | increased release | down-regulation of RAGE | significant stimulatory effect | enhancing dramatically the production of p24 | slight increase in viral replication
